Measurements as given in US20260234245A1 (ELTHERA, published 2026).
Where a chain is given by its changes, count along the chain named. Each block holds one binder with its values, some of them ahead of it.

Key:
[1] = target: T1, recombinant hexahistidine-tagged human Neurofascin (human, UniProt O94856 25-1217, limits assumed); assay: direct ELISA on plate-coated human Neurofascin-His, HRP goat anti-mouse detection
T1 construct: Hexahistidine-tagged; also called plate-coated human Neurofascin
T1 sequence (looked up): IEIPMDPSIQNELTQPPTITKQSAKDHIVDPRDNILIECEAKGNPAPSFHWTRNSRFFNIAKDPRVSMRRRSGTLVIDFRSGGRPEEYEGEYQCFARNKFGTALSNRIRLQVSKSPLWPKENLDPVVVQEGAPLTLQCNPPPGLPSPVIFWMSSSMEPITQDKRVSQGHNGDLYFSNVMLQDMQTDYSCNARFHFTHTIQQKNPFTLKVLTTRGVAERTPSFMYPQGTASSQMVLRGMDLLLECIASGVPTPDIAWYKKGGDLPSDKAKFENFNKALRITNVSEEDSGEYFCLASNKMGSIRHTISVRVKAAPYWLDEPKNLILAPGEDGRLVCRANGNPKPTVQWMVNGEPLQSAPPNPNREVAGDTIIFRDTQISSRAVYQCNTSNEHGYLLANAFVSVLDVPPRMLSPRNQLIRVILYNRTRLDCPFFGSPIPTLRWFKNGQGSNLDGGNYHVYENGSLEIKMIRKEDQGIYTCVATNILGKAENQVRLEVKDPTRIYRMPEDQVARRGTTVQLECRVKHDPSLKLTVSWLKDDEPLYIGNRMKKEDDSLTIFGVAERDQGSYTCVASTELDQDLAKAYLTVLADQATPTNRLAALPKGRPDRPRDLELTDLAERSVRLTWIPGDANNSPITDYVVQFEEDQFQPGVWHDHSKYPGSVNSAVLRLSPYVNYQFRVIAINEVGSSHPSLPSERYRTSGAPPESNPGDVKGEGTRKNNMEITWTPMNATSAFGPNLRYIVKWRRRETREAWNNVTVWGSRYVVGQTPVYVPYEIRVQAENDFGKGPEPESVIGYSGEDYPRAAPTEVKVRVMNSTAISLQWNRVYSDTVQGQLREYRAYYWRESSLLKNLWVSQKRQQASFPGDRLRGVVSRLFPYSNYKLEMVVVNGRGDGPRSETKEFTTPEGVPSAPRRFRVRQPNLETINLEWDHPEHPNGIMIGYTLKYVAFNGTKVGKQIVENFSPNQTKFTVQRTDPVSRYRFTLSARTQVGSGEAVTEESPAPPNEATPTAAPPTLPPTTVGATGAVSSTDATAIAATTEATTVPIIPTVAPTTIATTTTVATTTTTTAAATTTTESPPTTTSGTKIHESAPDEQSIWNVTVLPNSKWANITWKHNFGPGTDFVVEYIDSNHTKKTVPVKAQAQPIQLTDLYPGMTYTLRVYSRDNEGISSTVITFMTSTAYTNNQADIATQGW
Protocol: (§1) Recombinant human L1CAM-human Fc and human NrCAM-human Fc fusion proteins, as well as recombinant hexahistidine-tagged versions of human CHL1 and Neurofascin, respectively, were added to ELISA plates at a concentration of 1 μg/mL in 50 mM carbonate buffer pH 9.6 (100 μL per well). Plates were incubated overnight at 4° C., washed 5 times with PBS/0.05% Tween, and blocked by the addition of 200 μL per well PBS/0.05% Tween/1% Bovine serum albumin (BSA). […] As positive controls the same dilution series were prepared for commercial mouse antibodies directed against L1CAM (clone UJ127.11, NovusBio), human NrCAM (clone 308000, Creative Diagnostics), human CHL1 (clone 6E6E4, Sino Biological) and human Neurofascin (clone 727030, R&D systems). Plates were washed 5 times with PBS/0.05% Tween, and 100 μL per well of the antibody dilution series were added to the plates. After an incubation for 1 hour at room temperature, plates were washed again and 100 μL per well of a horse-radish peroxidase conjugated polyclonal goat anti-mouse antibody (diluted 1:1000 in PBS/0.05% Tween/1% BSA) was added. […] After an incubation of 8 minutes at room temperature, reactions were stopped by the addition of 50 μL per well 0.16 M H₂SO₄, and absorption at 450 nm was determined in a microplate reader.

[2] = target: T2, recombinant hexahistidine-tagged human CHL1 (human, UniProt O00533 25-1082, limits assumed); assay: direct ELISA on plate-coated human CHL1-His, HRP goat anti-mouse detection
T2 construct: Hexahistidine-tagged; also called plate-coated human CHL1; close homolog of L1 (CHL1)
T2 sequence (looked up): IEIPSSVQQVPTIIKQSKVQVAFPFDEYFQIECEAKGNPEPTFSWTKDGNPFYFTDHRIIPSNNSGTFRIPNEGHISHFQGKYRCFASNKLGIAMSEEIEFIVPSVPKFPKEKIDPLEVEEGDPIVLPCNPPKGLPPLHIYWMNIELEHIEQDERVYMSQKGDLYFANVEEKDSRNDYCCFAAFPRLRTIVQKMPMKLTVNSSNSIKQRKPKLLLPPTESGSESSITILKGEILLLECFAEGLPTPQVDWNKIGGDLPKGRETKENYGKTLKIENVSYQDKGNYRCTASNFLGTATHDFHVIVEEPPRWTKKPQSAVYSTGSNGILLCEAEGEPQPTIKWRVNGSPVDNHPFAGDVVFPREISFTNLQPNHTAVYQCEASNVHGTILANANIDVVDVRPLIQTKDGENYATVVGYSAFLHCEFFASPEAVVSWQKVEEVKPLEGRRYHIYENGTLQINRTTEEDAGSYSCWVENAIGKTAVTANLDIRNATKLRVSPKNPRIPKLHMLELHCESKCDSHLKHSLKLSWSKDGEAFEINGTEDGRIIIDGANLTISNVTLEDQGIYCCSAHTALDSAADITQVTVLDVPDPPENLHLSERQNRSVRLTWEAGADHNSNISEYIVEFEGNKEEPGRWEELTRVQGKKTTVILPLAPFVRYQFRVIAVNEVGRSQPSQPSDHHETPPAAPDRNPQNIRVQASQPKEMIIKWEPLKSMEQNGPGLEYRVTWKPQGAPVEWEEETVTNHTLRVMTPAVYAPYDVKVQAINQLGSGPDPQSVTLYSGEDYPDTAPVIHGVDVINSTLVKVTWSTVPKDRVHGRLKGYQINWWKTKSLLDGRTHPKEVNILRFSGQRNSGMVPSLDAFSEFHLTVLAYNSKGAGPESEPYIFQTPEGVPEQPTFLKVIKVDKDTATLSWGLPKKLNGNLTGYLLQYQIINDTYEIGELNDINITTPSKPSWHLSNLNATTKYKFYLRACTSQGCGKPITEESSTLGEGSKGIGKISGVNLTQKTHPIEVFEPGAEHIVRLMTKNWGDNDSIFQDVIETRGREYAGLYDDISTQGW
Protocol: as §1

[3] = target: T3, recombinant human NrCAM-human Fc fusion protein (human, UniProt Q92823 25-1167, limits assumed); assay: direct ELISA on plate-coated human NrCAM (panel titled 'human NrCAM-His'; the text calls it an NrCAM-human Fc fusion), HRP goat anti-mouse detection
T3 construct: also called plate-coated human NrCAM; Neuronal cell adhesion molecule (NrCAM)
T3 sequence (Q92823 25-1167 limits assumed): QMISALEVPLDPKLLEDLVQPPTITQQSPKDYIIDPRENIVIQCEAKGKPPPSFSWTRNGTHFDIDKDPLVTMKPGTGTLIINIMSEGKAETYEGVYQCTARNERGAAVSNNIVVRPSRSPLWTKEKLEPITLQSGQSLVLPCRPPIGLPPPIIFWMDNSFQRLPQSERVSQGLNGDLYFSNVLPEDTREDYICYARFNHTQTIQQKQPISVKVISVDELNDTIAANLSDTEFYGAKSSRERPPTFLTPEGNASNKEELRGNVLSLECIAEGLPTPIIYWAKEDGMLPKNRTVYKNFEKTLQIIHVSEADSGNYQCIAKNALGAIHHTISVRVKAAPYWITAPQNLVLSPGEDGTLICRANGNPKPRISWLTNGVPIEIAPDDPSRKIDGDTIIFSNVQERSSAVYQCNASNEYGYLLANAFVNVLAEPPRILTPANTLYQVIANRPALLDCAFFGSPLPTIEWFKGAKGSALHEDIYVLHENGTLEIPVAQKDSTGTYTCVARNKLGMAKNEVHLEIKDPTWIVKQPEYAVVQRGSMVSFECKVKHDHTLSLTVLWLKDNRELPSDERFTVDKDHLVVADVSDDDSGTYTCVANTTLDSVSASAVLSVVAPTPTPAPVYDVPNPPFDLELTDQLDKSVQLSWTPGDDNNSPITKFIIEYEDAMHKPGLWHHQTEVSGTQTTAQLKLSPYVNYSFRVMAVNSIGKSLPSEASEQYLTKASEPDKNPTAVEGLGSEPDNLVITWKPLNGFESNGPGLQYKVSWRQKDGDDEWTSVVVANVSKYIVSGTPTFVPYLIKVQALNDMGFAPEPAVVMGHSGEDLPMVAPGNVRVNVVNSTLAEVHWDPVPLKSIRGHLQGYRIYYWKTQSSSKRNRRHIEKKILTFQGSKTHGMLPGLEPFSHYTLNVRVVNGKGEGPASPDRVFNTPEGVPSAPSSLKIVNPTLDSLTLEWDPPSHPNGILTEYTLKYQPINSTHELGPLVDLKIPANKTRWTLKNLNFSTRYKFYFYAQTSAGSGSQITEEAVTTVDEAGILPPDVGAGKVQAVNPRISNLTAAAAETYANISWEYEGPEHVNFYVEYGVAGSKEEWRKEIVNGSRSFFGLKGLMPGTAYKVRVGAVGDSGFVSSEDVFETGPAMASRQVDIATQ
Protocol: as §1

[4] = target: T4, soluble His-tagged human L1CAM (extracellular portion, amino acids 20 to 1120) (human, UniProt P32004 20-1120); assay: SPR (Biacore T200), antibody captured on C1 Protein A chip, His-tagged human L1CAM as analyte 10, 20, 40 nM, 1:1 Langmuir fit
T4 construct: range 20-1120; Expressed in HEK cells with an N-terminal leader peptide for secretion (not part of the assayed protein)
T4 sequence (P32004 other isoform, or with tags, fused parts or gaps limits assumed): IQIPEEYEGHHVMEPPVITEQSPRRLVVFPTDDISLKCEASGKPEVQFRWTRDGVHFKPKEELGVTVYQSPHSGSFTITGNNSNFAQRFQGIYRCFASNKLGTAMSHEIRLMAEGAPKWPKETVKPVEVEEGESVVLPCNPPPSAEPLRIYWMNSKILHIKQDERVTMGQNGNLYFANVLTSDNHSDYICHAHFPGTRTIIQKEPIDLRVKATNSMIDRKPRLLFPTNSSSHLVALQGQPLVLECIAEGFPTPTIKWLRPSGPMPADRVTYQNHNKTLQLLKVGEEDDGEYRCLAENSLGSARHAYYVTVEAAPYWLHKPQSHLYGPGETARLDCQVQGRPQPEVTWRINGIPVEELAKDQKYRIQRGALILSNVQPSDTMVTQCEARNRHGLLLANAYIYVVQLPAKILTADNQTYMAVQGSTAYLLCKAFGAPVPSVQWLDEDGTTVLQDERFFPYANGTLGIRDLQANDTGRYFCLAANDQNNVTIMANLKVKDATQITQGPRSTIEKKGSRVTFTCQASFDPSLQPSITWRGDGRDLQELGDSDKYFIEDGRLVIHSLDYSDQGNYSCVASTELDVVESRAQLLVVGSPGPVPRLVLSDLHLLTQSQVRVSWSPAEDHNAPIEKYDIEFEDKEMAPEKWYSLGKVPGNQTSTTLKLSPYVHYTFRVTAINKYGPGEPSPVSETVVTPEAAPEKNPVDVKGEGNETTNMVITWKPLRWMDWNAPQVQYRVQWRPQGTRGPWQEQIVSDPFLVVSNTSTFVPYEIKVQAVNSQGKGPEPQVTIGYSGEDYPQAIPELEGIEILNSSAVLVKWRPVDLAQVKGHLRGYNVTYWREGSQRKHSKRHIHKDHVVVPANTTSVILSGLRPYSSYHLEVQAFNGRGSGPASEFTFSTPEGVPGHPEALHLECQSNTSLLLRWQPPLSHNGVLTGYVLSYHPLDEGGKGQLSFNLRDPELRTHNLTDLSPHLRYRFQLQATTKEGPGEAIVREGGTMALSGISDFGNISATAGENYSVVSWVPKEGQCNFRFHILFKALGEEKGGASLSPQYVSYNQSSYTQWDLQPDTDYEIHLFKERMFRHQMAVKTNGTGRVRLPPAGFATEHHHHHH
Protocol: Monovalent kinetic binding constants of the eight humanized antibody variants towards human L1CAM were determined by surface plasmon resonance using a Biacore T200 instrument. Antibodies were captured via their Fc regions on a C1 Protein A Chip (GE Healthcare), and soluble His-tagged human L1CAM was injected as analyte in 3 different concentrations (10, 20 and 40 nM), using 10 mM HEPES/150 mM NaCl/3 mM EDTA/0.05% Tween 20 as running buffer. Detected resonance units (sensorgrams) were fitted to a 1:1 Langmuir binding model and association (kₐ) and dissociation (kd) rate constants as well as the affinity constants (KD) were calculated.

binding result [1]: no binding (tested: 1 µg/mL)
binding result [2]: no binding (tested: 1 µg/mL)
binding result [3]: no binding (tested: 1 µg/mL)
B1: OV549.20 mouse IgG2a (antibody, V domains shown)
VH: DVQLQESGPGLVKPSQSLSLTCTVTGYSITSDYAWNWIRQFPGNKVEWMGYISYSGSFSYHPSLKSRISITRDTSKNQFFLQLSSVTTEDTATYYCARSFSYGYGFAYWGQGTLVTVSS
VL: DIVMTQSHKFMSTSVGDRVNITCKASQDVSSAVAWYQQKPGQSPKLLIYSASYRYTGVPDHFTGSGSGTDFTFTISSVQAEDLAVYYCQQHYSTPWTFGGGTKLEIKR
modifications: N-glycosylation motif Asn-Ile-Thr in the variable region; glycosylated and non-glycosylated light chain forms present
notes: Recombinant mouse IgG2a expressed in CHO K1 cells; also called OV549.20 (murine); mAb OV549.20

Kd [4]: 6.3 nM
koff [4]: 0.000859 s⁻¹
kon [4]: 137000 M⁻¹ s⁻¹
B2: H4L2 (antibody, V domains shown)
VH: B1 VH with D1Q, S17T, I68V, S69T, T71S, F80S, Q82K, T88A, E89A, T93V
VL: DIVMTQSPSSLSASVGDRVTITCKASQDVSSAVAWYQQKPGQSPKLLIYSASYRYTGVPDRFSGSGSGTDFTFTISSLQPEDFATYYCQQHYSTPWTFGGGTKLEIK
notes: also called humanized antibody variant H4L2
